{"source": "paper PMC7893173", "key": {"[1]": {"target": "HSV-1 nuclear egress complex NEC220 (UL31 1–306 with UL34 1–220) (herpes simplex virus type 1) (UniProt P10215)"}, "[2]": {"target": "HSV-1 nuclear egress complex NEC220 (UL31 1–306 with UL34 1–220) (herpes simplex virus type 1) (UniProt P10215)", "remark": "listed apart in the source"}, "[3]": {"target": "HSV-1 nuclear egress complex NEC220 (UL31 1–306 with UL34 1–220) (herpes simplex virus type 1) (UniProt P10215)", "remark": "listed apart in the source"}}}
{"molecule": "HSV-1 UL25∆44 Q72A (from UniProt P10209 45-580) (domain or fragment)", "values": [{"measurement": "inhibition of NEC220-mediated budding of giant unilamellar vesicles in vitro (1 μM NEC220; not inhibitory at NEC:UL25 1:1, value at 1:10) (% reduction in budding)", "setting": "[1]", "result": 90}]}
{"molecule": "UL25^native(45–94) peptide (from UniProt P10209 45-94)", "values": [{"measurement": "inhibition of NEC220-mediated budding of giant unilamellar vesicles in vitro (1 μM NEC220; NEC:peptide 1:0.1, 1:0.3, 1:0.6, 1:1 and 1:10; maximal effect at 1:1) (% reduction in budding)", "setting": "[2]", "result": 75}]}
{"molecule": "(EAEKAAK)7EAEK peptide (peptide) peptide: EAEKAAKEAEKAAKEAEKAAKEAEKAAKEAEKAAKEAEKAAKEAEKAAKEAEK", "values": [{"measurement": "inhibition of NEC220-mediated budding of giant unilamellar vesicles in vitro (1 μM NEC220; not inhibitory at NEC:peptide 1:1, value at 1:10) (% reduction in budding)", "setting": "[3]", "result": 50}]}
